{"source": "patent CN117327176A", "about": "(NANJING RONGJIEKANG BIOTECHNOLOGY CO LTD, dated 2024)", "binders": {"B1": {"name": "单域抗体 1B7 (VHH, E. coli crude extract) (VHH)", "VHH": "ESGGGSVQAGGSLRLSCTTSGYTYSSNCIGWFRQAPGKEREEIATISRVGEITFYADSVKGRFTISQDNTETTVFLQMNSLKPEDTAVYYCAASPPTYGGCPTRSRDYDKWGQGTQVTVSS", "notes": "Expressed from pMECS in E. coli and detected through an HA tag"}, "B2": {"name": "单域抗体 1F9 (VHH, E. coli crude extract) (VHH)", "VHH": "ESGGGSVQAGGSLRLSCATSRYTYNCMGWFRQSPGKEREQVAGIAMGVVTYYADSVKGRFTISQDNGKNTVDLQMDNLKPEDTAMYYCAAGPAHYKCYSPSGGRYNYWGQGTQVTVSS", "notes": "as for B1"}, "B3": {"name": "单域抗体 4A1 (VHH, E. coli crude extract) (VHH)", "VHH": "B2 VHH with A90S, A93P, P100A", "notes": "as for B1"}, "B4": {"name": "单域抗体 1H5 (VHH, E. coli crude extract) (VHH)", "VHH": "B2 VHH with S6L, A9P", "notes": "as for B1"}, "B5": {"name": "单域抗体 1F3 (VHH, E. coli crude extract) (VHH)", "VHH": "ESGGGSVQAGGSLRLSCATSTSRFTYGSACMGWFRQSPGKEREQVAGIAMGVVTYYADSVKGRFTISQDNGKNTVDLQMDNLKPEDTAMYYCAAGPAHYNCYSASGGRYNYWGQGTQVTVSS", "notes": "as for B1"}, "B6": {"name": "单域抗体 2H3 (VHH, E. coli crude extract) (VHH)", "VHH": "B5 VHH with N100K, Y111I", "notes": "as for B1"}, "B7": {"name": "单域抗体 212C7 (VHH, E. coli crude extract) (VHH)", "VHH": "B5 VHH with S6L, A9P", "notes": "as for B1"}, "B8": {"name": "单域抗体 23G12 (VHH, E. coli crude extract) (VHH)", "VHH": "ESGGGSVQAGGSLRLSCATSRFTYGSACMGWFRQSPGKEREQVAGIAMGVVTYYADSVKGRFTISQDNGKNTVDLQMDNLKPEDTAMYYCATGPAHYKCYSASGGRYNYWGQGTQVTVSS", "notes": "as for B1"}, "B9": {"name": "单域抗体 2G5 (VHH, E. coli crude extract) (VHH)", "VHH": "B8 VHH with K98N", "notes": "as for B1"}, "B10": {"name": "单域抗体 1A6 (VHH, E. coli crude extract) (VHH)", "VHH": "B8 VHH with F22Y, A27S, G30A, T92A, A95P, A102V", "notes": "as for B1"}, "B11": {"name": "单域抗体 2D10 (VHH, E. coli crude extract) (VHH)", "VHH": "B8 VHH with E83D", "notes": "as for B1"}, "B12": {"name": "单域抗体 27H4 (VHH, E. coli crude extract) (VHH)", "VHH": "B8 VHH with Q34H, S35A, A102P", "notes": "as for B1"}, "B13": {"name": "单域抗体 21H6 (VHH, E. coli crude extract) (VHH)", "VHH": "B8 VHH with F22W, S26T, K59E, G69E", "notes": "as for B1"}, "B14": {"name": "单域抗体 4F3 (VHH, E. coli crude extract) (VHH)", "VHH": "B8 VHH with F22Y, A27S, G69N, T92S, A95P", "notes": "as for B1"}, "B15": {"name": "单域抗体 1A7 (VHH, E. coli crude extract) (VHH)", "VHH": "B8 VHH with S20P, F22Y, S26T, A27S, K38Y, E39Q, T92A", "notes": "as for B1"}, "B16": {"name": "单域抗体 1D1 (VHH, E. coli crude extract) (VHH)", "VHH": "B8 VHH with A9V, N108S, Y109D", "notes": "as for B1"}, "B17": {"name": "单域抗体 214D11 (VHH, E. coli crude extract) (VHH)", "VHH": "B8 VHH with N108D, Y109A", "notes": "as for B1"}, "B18": {"name": "单域抗体 4B2 (VHH, E. coli crude extract) (VHH)", "VHH": "B8 VHH with F22Y, T92A, K98L, N108T, Y109S", "notes": "as for B1"}}, "note": "Substitutions are numbered along the chain they refer to.", "data": [{"biological_target": "T1, 人源TSLP蛋白 (Thymic stromal lymphopoietin) (human, UniProt Q969D9 29-159)", "T1 construct": "also called 人源重组TSLP蛋白; TSLP重组蛋白", "assay": "ELISA of E. coli crude extract on coated TSLP, anti-HA HRP; positive if OD more than 5 times the control well", "values": [{"binder": "B1", "binding result": "binds"}, {"binder": "B2", "binding result": "binds"}, {"binder": "B3", "binding result": "binds"}, {"binder": "B4", "binding result": "binds"}, {"binder": "B5", "binding result": "binds"}, {"binder": "B6", "binding result": "binds"}, {"binder": "B7", "binding result": "binds"}, {"binder": "B8", "binding result": "binds"}, {"binder": "B9", "binding result": "binds"}, {"binder": "B10", "binding result": "binds"}, {"binder": "B11", "binding result": "binds"}, {"binder": "B12", "binding result": "binds"}, {"binder": "B13", "binding result": "binds"}, {"binder": "B14", "binding result": "binds"}, {"binder": "B15", "binding result": "binds"}, {"binder": "B16", "binding result": "binds"}, {"binder": "B17", "binding result": "binds"}, {"binder": "B18", "binding result": "binds"}]}]}
